± gives the standard deviation.
Assay: protein stability index of a GFP-peptide fusion (GPS, HEK-293T) (PSI 1-6); higher = more stable
Details: c terminus: a fixed tail appended
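Also: 24-mer peptide tiles fused after GFP, lentivirally expressed, FACS-sorted into six equal bins by GFP/DsRed ratio, decoded by Illumina sequencing, PSI is the read-weighted mean bin number.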

Sequence: RSTCVYVCALSALPAGPLPAPLLV [PLEKHN1]
- protein stability index (treatment: DMSO): 3.18 ± 1.1
- protein stability index (treatment: MLN4924 1 uM, 8 h): 2.88 ± 0.71

Sequence: KQTGIVFGSFLLLLFSLTQFSVVS [RTN1]
- protein stability index (treatment: DMSO): 3.08 ± 0.46
- protein stability index (treatment: MLN4924 1 uM, 8 h): 3.48 ± 0.38

Sequence: TVTSLKTKVGGTNPNGGSFEEVLS [TPD52L1]
- protein stability index (treatment: DMSO): 3.811 ± 0.036
- protein stability index (treatment: MLN4924 1 uM, 8 h): 3.82 ± 0.18

Sequence: EKLATDTSTFEATSEGTLELQQRN [ZNF232]
- protein stability index (treatment: DMSO): 5.29 ± 0.22
- protein stability index (treatment: MLN4924 1 uM, 8 h): 5.41 ± 0.14

Sequence: RAGGGGGGDYGLVTAGCGFGKDFR [PPTC7]
- protein stability index (treatment: DMSO): 3.33 ± 0.51
- protein stability index (treatment: MLN4924 1 uM, 8 h): 3.13 ± 0.21

Sequence: RNTLNQPCSGSVSLQPRRSIAFRL [GMCL1]
- protein stability index (treatment: DMSO): 2.41 ± 0.29
- protein stability index (treatment: MLN4924 1 uM, 8 h): 2.36 ± 0.11

Sequence: GHHQGMPGYLPGAMPPYGQGPPMV [ZNF207]
- protein stability index (treatment: DMSO): 2.86 ± 0.43
- protein stability index (treatment: MLN4924 1 uM, 8 h): 2.84 ± 0.2

Sequence: IMTDLYYLSQTDGAGDWREKEAKD [FUT8]
- protein stability index (treatment: DMSO): 3.59 ± 0.42
- protein stability index (treatment: MLN4924 1 uM, 8 h): 3.69 ± 0.32

Sequence: IEQFSESHAIHVEEQSDQSFSSLE [IQUB]
- protein stability index (treatment: DMSO): 5.1 ± 0.095
- protein stability index (treatment: MLN4924 1 uM, 8 h): 5.14 ± 0.17

Sequence: SFGGEWSAPDTMKRYSMYLTPKGG [TRIM29]
- protein stability index (treatment: DMSO): 3.09 ± 0.51
- protein stability index (treatment: MLN4924 1 uM, 8 h): 3.09 ± 0.48

Sequence: MLERIKHEKTVDIYGHVTLMRAQR [PTPRD]
- protein stability index (treatment: DMSO): 1.73 ± 0.22
- protein stability index (treatment: MLN4924 1 uM, 8 h): 2.16 ± 0.38

Sequence: HATALVEAFRLKQQLHARYVLNLL [PPEF2]
- protein stability index (treatment: DMSO): 2.43 ± 0.38
- protein stability index (treatment: MLN4924 1 uM, 8 h): 2.6 ± 0.51

Sequence: YEMTDLTNNKVYAAKIIPHSRVAK [PLK2]
- protein stability index (treatment: DMSO): 3.78 ± 0.092
- protein stability index (treatment: MLN4924 1 uM, 8 h): 4.05 ± 0.28

Sequence: GRGLLRWDSFSAWLHCVCVVGFDL [DENND6A]
- protein stability index (treatment: DMSO): 2.77 ± 0.58
- protein stability index (treatment: MLN4924 1 uM, 8 h): 2.83 ± 0.69

Sequence: EDGHRTSTSAVPNLFVPLNTNPKE [ADD1]
- protein stability index (treatment: DMSO): 4.89 ± 0.24
- protein stability index (treatment: MLN4924 1 uM, 8 h): 5.07 ± 0.11

Sequence: SLCSLLESQSTSLRGSYNSLHDGS [LURAP1L]
- protein stability index (treatment: DMSO): 2.8 ± 0.11
- protein stability index (treatment: MLN4924 1 uM, 8 h): 2.87 ± 0.41

Sequence: CRDGEVLLRLSKHGPGHETPMTIP [ACSBG2]
- protein stability index (treatment: DMSO): 2.62 ± 0.4
- protein stability index (treatment: MLN4924 1 uM, 8 h): 2.66 ± 0.63

Sequence: RAAAQQRRSFLNAHHRSGAQVFPE [GNAS]
- protein stability index (treatment: DMSO): 3.53 ± 0.12
- protein stability index (treatment: MLN4924 1 uM, 8 h): 3.5 ± 0.23

Sequence: ERLQLEYVDVVFANRPDPNTPMEE [KCNAB2]
- protein stability index (treatment: DMSO): 4.7 ± 0.23
- protein stability index (treatment: MLN4924 1 uM, 8 h): 4.75 ± 0.33

Sequence: RLCGGKGGFGSMLRALGAQIEKTT [SDE2]
- protein stability index (treatment: DMSO): 2.59 ± 0.23
- protein stability index (treatment: MLN4924 1 uM, 8 h): 2.55 ± 0.45

Sequence: DVKARLEGEIATYRHLLEGEDCKL [KRT36]
- protein stability index (treatment: DMSO): 4.22 ± 0.21
- protein stability index (treatment: MLN4924 1 uM, 8 h): 4.29 ± 0.075

Sequence: APGIGPPEPWPGGCTGDEAESRGH [MYCL]
- protein stability index (treatment: DMSO): 4.97 ± 0.55
- protein stability index (treatment: MLN4924 1 uM, 8 h): 5.51 ± 0.23

Sequence: ILTATVDNANILLQIDNARLAADD [KRT17]
- protein stability index (treatment: DMSO): 3.29 ± 0.075
- protein stability index (treatment: MLN4924 1 uM, 8 h): 3.26 ± 0.19

Sequence: VSPGGVKLEISTKEVPVVHTETKT [EPB41L3]
- protein stability index (treatment: DMSO): 4.88 ± 0.29
- protein stability index (treatment: MLN4924 1 uM, 8 h): 5 ± 0.3

Sequence: LDPASLAWLTEEEPEPAEVTSTSQ [DDIT3]
- protein stability index (treatment: DMSO): 5.51 ± 0.17
- protein stability index (treatment: MLN4924 1 uM, 8 h): 5.53 ± 0.31

Sequence: PTVIRNVGLGTCSMFSRVGGIIAP [SLC22A15]
- protein stability index (treatment: DMSO): 2.34 ± 0.3
- protein stability index (treatment: MLN4924 1 uM, 8 h): 2.23 ± 0.47

Sequence: SKKTFQITKQGDGVDFLSWFLNAL [USP39]
- protein stability index (treatment: DMSO): 2.35 ± 0.16
- protein stability index (treatment: MLN4924 1 uM, 8 h): 2.29 ± 0.24

Sequence: EEVDQMFQFASIDVAGNLDYKALS [MYL5]
- protein stability index (treatment: DMSO): 4.27 ± 0.3
- protein stability index (treatment: MLN4924 1 uM, 8 h): 4.39 ± 0.27

Sequence: IQEQKVVLEENGEKNQVQLGKLEA [SASS6]
- protein stability index (treatment: DMSO): 5.2 ± 0.22
- protein stability index (treatment: MLN4924 1 uM, 8 h): 5.42 ± 0.3

Sequence: NGKEFNNWFNVTGSDKCVFLKNTE [CD69]
- protein stability index (treatment: DMSO): 3.2 ± 0.31
- protein stability index (treatment: MLN4924 1 uM, 8 h): 3.08 ± 0.42

Sequence: GKDSRWLPSLVLARLVFVPLLLLC [SLC29A1]
- protein stability index (treatment: DMSO): 2.68 ± 0.78
- protein stability index (treatment: MLN4924 1 uM, 8 h): 2.48 ± 0.45

Sequence: APAFRLSLKAKVSDNMSHLMVDFA [FSD1]
- protein stability index (treatment: DMSO): 2.28 ± 0.1
- protein stability index (treatment: MLN4924 1 uM, 8 h): 2.25 ± 0.12

Sequence: MRSGEPACTMDQARGLDDAAARGG [ZBED3]
- protein stability index (treatment: DMSO): 5 ± 0.23
- protein stability index (treatment: MLN4924 1 uM, 8 h): 5.06 ± 0.15

Sequence: FPFSLLGLLALAIGLWGLAVKGSL [TSPAN10]
- protein stability index (treatment: DMSO): 3.33 ± 0.37
- protein stability index (treatment: MLN4924 1 uM, 8 h): 3.14 ± 0.27

Sequence: FGAVTNVKVIRDFTTNKCKGFGFV [ELAVL3]
- protein stability index (treatment: DMSO): 2.42 ± 0.21
- protein stability index (treatment: MLN4924 1 uM, 8 h): 2.19 ± 0.38

Sequence: AISVVGVSAGGHTLSRPPPAQVPR [TFE3]
- protein stability index (treatment: DMSO): 3.38 ± 0.24
- protein stability index (treatment: MLN4924 1 uM, 8 h): 3.35 ± 0.24

Sequence: HTEERPYECNHCGKGFRHSSSLAQ [ZNF8]
- protein stability index (treatment: DMSO): 3.58 ± 0.3
- protein stability index (treatment: MLN4924 1 uM, 8 h): 3.79 ± 0.27

Sequence: SFVCWSRGFMEMNGRGELVESLKR [AUP1]
- protein stability index (treatment: DMSO): 2.36 ± 0.51
- protein stability index (treatment: MLN4924 1 uM, 8 h): 2.2 ± 0.27

Sequence: DCEMNSPQVPPSQPLRPWAGGDVP [DYRK1B]
- protein stability index (treatment: DMSO): 4.32 ± 0.13
- protein stability index (treatment: MLN4924 1 uM, 8 h): 4.62 ± 0.15

Sequence: GRLGKQCRERWHNHLNPEVKKSCW [MYBL2]
- protein stability index (treatment: DMSO): 2.42 ± 0.17
- protein stability index (treatment: MLN4924 1 uM, 8 h): 2.99 ± 0.41

Sequence: GYLVTKVVAVDRDSGQNAWLSYRL [PCDHGA10]
- protein stability index (treatment: DMSO): 2.6 ± 0.56
- protein stability index (treatment: MLN4924 1 uM, 8 h): 2.58 ± 0.69

Sequence: VIKDKDDSVDAQNICHVWHMNVEA [RNF180]
- protein stability index (treatment: DMSO): 3.98 ± 0.047
- protein stability index (treatment: MLN4924 1 uM, 8 h): 3.66 ± 0.17

Sequence: PAGCMYIHGGVVNIHENKRTGSLF [KLHDC10]
- protein stability index (treatment: DMSO): 2.52 ± 0.18
- protein stability index (treatment: MLN4924 1 uM, 8 h): 2.45 ± 0.26

Sequence: TEFTRFLCSSPLEAETPPNGPDCG [ATE1]
- protein stability index (treatment: DMSO): 4.66 ± 0.086
- protein stability index (treatment: MLN4924 1 uM, 8 h): 4.52 ± 0.17

Sequence: FLHVRKATRAMGLLNTLSLAFVGG [TMEM175]
- protein stability index (treatment: DMSO): 2.16 ± 0.59
- protein stability index (treatment: MLN4924 1 uM, 8 h): 1.98 ± 0.35

Source: the supplement of paper PMC10567573
